Patent US20150203577A1 (Chugai, published 2015)
Substitutions are numbered along the chain they refer to. Like-named read-outs stand apart in the source and are kept apart here.

Tests used:
[1] = biological target: T1, mouse FcγRIII extracellular domain, C-terminal His tag (mouse, UniProt P08508 31-215); experiment: SPR (Biacore T200), 1:1 fit
T1 construct: Whole entry named; also called mFcγRIII; mFcgRIII
T1 chain: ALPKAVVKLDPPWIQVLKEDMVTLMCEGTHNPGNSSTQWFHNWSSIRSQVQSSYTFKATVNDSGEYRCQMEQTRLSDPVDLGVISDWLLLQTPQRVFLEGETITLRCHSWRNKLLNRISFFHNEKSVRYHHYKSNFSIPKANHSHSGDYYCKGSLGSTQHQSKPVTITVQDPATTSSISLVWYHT
Description: (§1) Each altered antibody was analyzed for its interaction with each Fcγ receptor prepared above using Biacore T100 (GE Healthcare Japan Corp.), Biacore T200 (GE Healthcare Japan Corp.), Biacore A100, or Biacore 4000. The running buffer used was HBS-EP+ (GE Healthcare Japan Corp.). The assay temperature was set to 25° C. The sensor chips used were chips prepared by immobilizing Protein L (ACTIGEN or BioVision) onto Series S Sensor Chip CM5 (GE Healthcare Japan Corp.) or Series S Sensor Chip CM4 (GE Healthcare Japan Corp.) by the amine coupling method.
(§2) In order to calculate the KD value of each altered antibody for FcγR, kinetic analysis was conducted according to the following method: first, the antibody of interest was captured onto any of these chips and allowed to interact with mFcγR diluted with a running buffer. For the obtained sensorgram, the assay results were globally fit into the 1:1 Langmuir binding model using Biacore Evaluation Software to calculate an association rate constant ka (L/mol/s) and a dissociation rate constant kd (1/s). From these values, the dissociation constant KD (mol/L) was calculated.

[2] = biological target: T2, mouse FcγRII extracellular domain, C-terminal His tag (mouse, UniProt P08101 30-210); experiment: SPR (Biacore T200), 1:1 fit
T2 construct: Whole entry named; also called mFcγRII; mFcgRII
T2 sequence: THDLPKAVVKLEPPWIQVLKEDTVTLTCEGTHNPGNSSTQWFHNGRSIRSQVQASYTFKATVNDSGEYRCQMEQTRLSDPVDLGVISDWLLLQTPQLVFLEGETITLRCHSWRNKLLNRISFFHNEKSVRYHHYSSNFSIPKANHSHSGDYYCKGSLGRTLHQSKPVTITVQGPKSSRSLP
Description: as §1, §2

[3] = biological target: T1, mouse FcγRIII extracellular domain, …; experiment: SPR (Biacore T200); KD of H237-mIgG1/MRAL-k0 / KD of variant
Description: as §1, §2

[4] = biological target: T3, mouse FcγRIII extracellular domain with C-terminal His tag (mouse, UniProt P08508 31-215); experiment: SPR Biacore T200
T3 construct: Made on the basis of NCBI NP-034318.2; also called mFcγRIII; mFcgRIII
T3 chain: T1 chain

[5] = biological target: T3, mouse FcγRIII extracellular domain with …; experiment: SPR Biacore T200
Description: as §1, §2

[6] = biological target: T1, mouse FcγRIII extracellular domain, …; experiment: SPR (Biacore T200); KD of H237-mIgG1/MRAL-k0 / KD of variant
Text: (§3) The antibody H chain variable region used was the variable region H237 (SEQ ID NO: 1) of the H chain VH3-IgG1 of the anti-IL-6 receptor antibody Fv4-IgG1 described in WO2009/125825. The antibody L chain commonly used was the L chain MRAL-k0 (SEQ ID NO: 2) of the anti-IL-6 receptor antibody tocilizumab. The aforementioned 7 variants were used as templates to substitute the amino acids at the alteration sites by the amino acids before the alteration. These variants were expressed and purified by the method of Reference Example 1 and evaluated for their binding to mFcγRII and mFcγRIII by the method of Reference Example 2 using Biacore T200.
as §1

[7] = biological target: T2, mouse FcγRII extracellular domain, …; experiment: as above
Text: as §3, §1

[8] = biological target: T1, mouse FcγRIII extracellular domain, …; experiment: as above
[9] = biological target: T2, mouse FcγRII extracellular domain, …; experiment: as above; remark: listed apart in the source

B1: H237-MB476/MRAL-k0 (antibody, mouse IgG1, kappa)
heavy: QVQLQESGPGLVKPSETLSLTCAVSGHSISHDHAWSWVRQPPGEGLEWIGFISYSGITNYNPSLQGRVTISRDNSKNTLYLQMNSLRAEDTAVYYCARSLARTTAMDYWGEGTLVTVSSAKTTPPSVYPLAPGSAAQTNSMVTLGCLVKGYFPEPVTVTWNSGSLSSGVHTFPAVLQSDLYTLSSSVTVPSSTWPSETVTCNVAHPASSTKVDKKIVPRDCGCKPCICQPNEVEEVFIFPPKPKDVLTITLTPKVTCVVVDISKDDPEVQFSWFVDDVEVHTAQTQPREEQFNSTFRSVSELPIMHQDWLNGKEFKCRVNSAAFPAPIEKTISKTKGRPKAPQVYTIPPPKEQMAKDKVSLTCMITDFFPEDITVEWQWNGQPAENYKNTQPIMDTDGSYFVYSKLNVQKSNWEAGNTFTCSVLHEGLHNHHTEKSLSHSPGK
light: not shown
notes: copies: 2 + 2
Kd [1]: 107 nM
Kd [2]: 0.804 nM
relative mFcγRIII-binding activity (mIgG1 = 1) [3]: 2.6 fold

B2: H237-mIgG1/MRAL-k0 (antibody)
heavy: B1 heavy with Q229T, P230V, N231P, E234S, E235S
light: not shown
notes: copies: 2 + 2
Kd [4]: 282 nM
Kd [5]: 282 nM

B3: H237-MB692/MRAL-k0 (antibody, mouse IgG1, kappa)
heavy: B1 heavy with Q229E, N231P, E235Y
light: not shown
notes: copies: 2 + 2
relative mFcγRIII-binding activity (mIgG1 = 1) [6]: 0.115 fold
relative mFcγRII-binding activity (mIgG1 = 1) [7]: 1.75 fold

B4: H237-MB695/MRAL-k0 (antibody, mouse IgG1, kappa)
heavy: B1 heavy with Q229T, E235F
light: not shown
notes: copies: 2 + 2
relative mFcγRIII-binding activity (mIgG1 = 1) [6]: 0.088 fold
relative mFcγRII-binding activity (mIgG1 = 1) [7]: 0.435 fold

B5: H237-MB636/MRAL-k0 (antibody, mouse IgG1, kappa)
heavy: B1 heavy with Q229E, P230V, N231Y, E235N
light: not shown
notes: copies: 2 + 2
relative mFcγRIII-binding activity (mIgG1 = 1) [6]: 0.172 fold
relative mFcγRII-binding activity (mIgG1 = 1) [7]: 3.92 fold

B6: H237-MB685/MRAL-k0 (antibody, mouse IgG1, kappa)
heavy: B1 heavy with Q229T, N231A, E235L
light: not shown
notes: copies: 2 + 2
relative mFcγRIII-binding activity (mIgG1 = 1) [6]: 0.093 fold
relative mFcγRII-binding activity (mIgG1 = 1) [7]: 0.606 fold

B7: H237-MB526/MRAL-k0 (antibody, mouse IgG1, kappa)
heavy: B1 heavy with S294L
light: not shown
notes: copies: 2 + 2
Kd [1]: 33 nM
Kd [2]: 0.904 nM
relative mFcγRIII-binding activity (mIgG1 = 1) [3]: 8.5 fold

B8: H237-MB702/MRAL-k0 (antibody, mouse IgG1, kappa)
heavy: B1 heavy with Q229T, P230A, N231Y, E235N
light: not shown
notes: copies: 2 + 2
relative mFcγRIII-binding activity (mIgG1 = 1) [6]: 0.145 fold
relative mFcγRII-binding activity (mIgG1 = 1) [7]: 0.96 fold

B9: H237-MB528/MRAL-k0 (antibody, mouse IgG1, kappa)
heavy: B1 heavy with S294L, A322D
light: not shown
notes: copies: 2 + 2
Kd [1]: 19.3 nM
Kd [2]: 0.56 nM
relative mFcγRIII-binding activity (mIgG1 = 1) [3]: 14.6 fold

B10: H237-MB642/MRAL-k0 (antibody, mouse IgG1, kappa)
heavy: B1 heavy with Q229E, P230D, N231Y, E235Y
light: not shown
notes: copies: 2 + 2
relative mFcγRIII-binding activity (mIgG1 = 1) [6]: 0.1 fold
relative mFcγRII-binding activity (mIgG1 = 1) [7]: 1.65 fold

B11: H237-MB694/MRAL-k0 (antibody)
heavy: B1 heavy with Q229E, P230D, N231P, E235Y
light: not shown
notes: copies: 2 + 2
relative mFcγRIII-binding activity (mIgG1 = 1) [6]: 0.031 fold
relative mFcγRII-binding activity (mIgG1 = 1) [7]: 0.544 fold

B12: H237-MB688/MRAL-k0 (antibody, mouse IgG1, kappa)
heavy: B1 heavy with Q229T, P230V, N231Y, E235N
light: not shown
notes: copies: 2 + 2
relative mFcγRIII-binding activity (mIgG1 = 1) [6]: 0.081 fold
relative mFcγRII-binding activity (mIgG1 = 1) [7]: 0.634 fold

B13: H237-MB698/MRAL-k0 (antibody, mouse IgG1, kappa)
heavy: B1 heavy with Q229E, P230V, N231P, V233E, E235L
light: not shown
notes: copies: 2 + 2
relative mFcγRIII-binding activity (mIgG1 = 1) [6]: 0.024 fold
relative mFcγRII-binding activity (mIgG1 = 1) [7]: 0.194 fold

B14: H237-MB594/MRAL-k0 (antibody, mouse IgG1, kappa)
heavy: B1 heavy with Q229E, P230V, N231P, V233E, E235S
light: not shown
notes: copies: 2 + 2
relative mFcγRIII-binding activity (mIgG1 = 1) [8]: 0.1 fold
relative mFcγRII-binding activity (mIgG1 = 1) [9]: 1.85 fold
relative mFcγRIII-binding activity (mIgG1 = 1) [6]: 0.057 fold
relative mFcγRII-binding activity (mIgG1 = 1) [7]: 1.3 fold

B15: H237-MB693/MRAL-k0 (antibody, mouse IgG1, kappa)
heavy: B1 heavy with Q229T, P230D, N231Y, E235Y
light: not shown
notes: copies: 2 + 2
relative mFcγRIII-binding activity (mIgG1 = 1) [6]: 0.094 fold
relative mFcγRII-binding activity (mIgG1 = 1) [7]: 1.22 fold

B16: H237-MB628/MRAL-k0 (antibody)
heavy: B1 heavy with Q229E, N231A, E235L
light: not shown
notes: copies: 2 + 2
relative mFcγRIII-binding activity (mIgG1 = 1) [6]: 0.083 fold
relative mFcγRII-binding activity (mIgG1 = 1) [7]: 2.09 fold

B17: H237-MB686/MRAL-k0 (antibody, mouse IgG1, kappa)
heavy: B1 heavy with Q229E, P230V, N231A, E235L
light: not shown
notes: copies: 2 + 2
relative mFcγRIII-binding activity (mIgG1 = 1) [6]: 0.052 fold
relative mFcγRII-binding activity (mIgG1 = 1) [7]: 0.167 fold

B18: H237-MB700/MRAL-k0 (antibody, mouse IgG1, kappa)
heavy: B1 heavy with Q229E, P230V, N231P, V233E, E235Y
light: not shown
notes: copies: 2 + 2
relative mFcγRIII-binding activity (mIgG1 = 1) [6]: 0.044 fold
relative mFcγRII-binding activity (mIgG1 = 1) [7]: 0.559 fold

B19: H237-MB527/MRAL-k0 (antibody, mouse IgG1, kappa)
heavy: B1 heavy with S294L, N320D
light: not shown
notes: copies: 2 + 2
Kd [1]: 51 nM
Kd [2]: 0.768 nM
relative mFcγRIII-binding activity (mIgG1 = 1) [3]: 5.5 fold

B20: H237-MB691/MRAL-k0 (antibody, mouse IgG1, kappa)
heavy: B1 heavy with Q229E, P230V, N231A, E235Y
light: not shown
notes: copies: 2 + 2
relative mFcγRIII-binding activity (mIgG1 = 1) [6]: 0.071 fold
relative mFcγRII-binding activity (mIgG1 = 1) [7]: 0.582 fold

B21: H237-MB645/MRAL-k0 (antibody, mouse IgG1, kappa)
heavy: B1 heavy with Q229E, P230V, N231Y, E235Y
light: not shown
notes: copies: 2 + 2
relative mFcγRIII-binding activity (mIgG1 = 1) [6]: 0.217 fold
relative mFcγRII-binding activity (mIgG1 = 1) [7]: 1.06 fold

B22: H237-MB696/MRAL-k0 (antibody, mouse IgG1, kappa)
heavy: B1 heavy with Q229E, P230V, E235F
light: not shown
notes: copies: 2 + 2
relative mFcγRIII-binding activity (mIgG1 = 1) [6]: 0.094 fold
relative mFcγRII-binding activity (mIgG1 = 1) [7]: 0.4 fold

B23: H237-MB687/MRAL-k0 (antibody)
heavy: B1 heavy with Q229E, N231P, E235L
light: not shown
notes: copies: 2 + 2
relative mFcγRIII-binding activity (mIgG1 = 1) [6]: 0.096 fold
relative mFcγRII-binding activity (mIgG1 = 1) [7]: 0.943 fold

B24: H237-MB690/MRAL-k0 (antibody, mouse IgG1, kappa)
heavy: B1 heavy with Q229T, N231A, E235Y
light: not shown
notes: copies: 2 + 2
relative mFcγRIII-binding activity (mIgG1 = 1) [6]: 0.188 fold
relative mFcγRII-binding activity (mIgG1 = 1) [7]: 1.6 fold

B25: H237-MB657/MRAL-k0 (antibody, mouse IgG1, kappa)
heavy: B1 heavy with Q229E, E235F
light: not shown
notes: copies: 2 + 2
relative mFcγRIII-binding activity (mIgG1 = 1) [6]: 0.087 fold
relative mFcγRII-binding activity (mIgG1 = 1) [7]: 1.54 fold

B26: H237-MB632/MRAL-k0 (antibody, mouse IgG1, kappa)
heavy: B1 heavy with Q229E, P230A, N231Y, E235N
light: not shown
notes: copies: 2 + 2
relative mFcγRIII-binding activity (mIgG1 = 1) [6]: 0.236 fold
relative mFcγRII-binding activity (mIgG1 = 1) [7]: 3.72 fold

B27: H237-MB689/MRAL-k0 (antibody, mouse IgG1, kappa)
heavy: B1 heavy with Q229E, P230V, N231P, E235N
light: not shown
notes: copies: 2 + 2
relative mFcγRIII-binding activity (mIgG1 = 1) [6]: 0.075 fold
relative mFcγRII-binding activity (mIgG1 = 1) [7]: 0.413 fold

B28: H237-MB703/MRAL-k0 (antibody, mouse IgG1, kappa)
heavy: B1 heavy with Q229E, P230A, N231P, E235N
light: not shown
notes: copies: 2 + 2
relative mFcγRIII-binding activity (mIgG1 = 1) [6]: 0.104 fold
relative mFcγRII-binding activity (mIgG1 = 1) [7]: 0.943 fold

B29: H237-MB646/MRAL-k0 (antibody, mouse IgG1, kappa)
heavy: B1 heavy with Q229E, N231A, E235Y
light: not shown
notes: copies: 2 + 2
relative mFcγRIII-binding activity (mIgG1 = 1) [6]: 0.176 fold
relative mFcγRII-binding activity (mIgG1 = 1) [7]: 3.8 fold
